To fix the notation:
T1: ovalbumin (UniProt P01012 2-386)
T1 sequence (looked up): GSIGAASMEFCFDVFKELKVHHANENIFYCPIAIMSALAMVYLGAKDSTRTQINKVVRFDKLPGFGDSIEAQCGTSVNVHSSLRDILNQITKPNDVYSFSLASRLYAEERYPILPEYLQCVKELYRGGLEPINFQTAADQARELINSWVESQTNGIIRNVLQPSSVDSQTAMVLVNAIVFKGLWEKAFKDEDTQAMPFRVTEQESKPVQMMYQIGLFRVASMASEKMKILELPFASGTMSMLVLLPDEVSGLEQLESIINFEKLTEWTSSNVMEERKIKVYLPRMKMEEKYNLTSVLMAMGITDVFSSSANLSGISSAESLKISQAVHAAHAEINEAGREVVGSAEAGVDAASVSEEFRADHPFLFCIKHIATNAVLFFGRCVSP

B1: human scFv VH3.5/VL3.5 (BSA binder from unimmunized library) (scFv, V domains shown)
VH: QVQLVQSGGGVVQPGRSLRLSCAASGFTFSSYGMHWVRQAPGKGLEWVAVISYDGSNKYYADSVKGRFTISRDNSKNTLYLQMNSLRAEDTAVYYCAKTGYSSGWGYFDYWGQGT
VL: SSELTQDPAVSVALGQTVRITCQGDSLRSYYASWYQQKPGQAPVLVIYGKNNRPSGIPDRFSGSSSGNTASLTITGAQAEDEADYYCNSRDSSGNHVVFGG
B2: human scFv VH13.1/VL13.1 (lysozyme binder from unimmunized library) (scFv, V domains shown)
VH: QVQLVQSGAEVKKPGQSLMISCQGSGYSFSNYWIGWVRQMPGKGLEWMGIIYPGDSDTRYSPSFQGQVTISADKSISTAYLHWSSLKASDTALYYCARLVGGTPAYWGQGT
VL: HVILTQPASVSGSPGQSITISCTGSSRDVGGYNYVSWYQHHPGKAPKLLISEVTNRPSGVSNRFSGSKSGNTASLTISGLQAEDEADYFCASYTSSKTYVFGG
notes: scFv on phage from pHEN1
B3: human scFv VH14.1/VL14.1 (lysozyme binder from unimmunized library) (scFv, V domains shown)
VH: QVQLQESGPGLVKPSETLSLVCTVSGGSLSFSYWGWIRQPPGKGLEWIGYISHRGTDYNSSLQSRVTISADTSKNQFSLKLSSVTAADTAVYYCARSFSNSFFFGYWGQGT
VL: SSELTQDPAVSVAFGQTVRITCQGDSLRSSYASWYQQKPGQAPLLVIYGENSRPSGIPDRFSGSSSGNTASLTITGAQAEDEADYYCNSRDSRGTHLEVFGG
notes: scFv on phage from pHEN1

Data on 3 molecules can be found in US20100136660A1 (published 2010).

The target in one test is T1, ovalbumin. The test is described as follows: phage ELISA. (In an ELISA, binding on a coated surface is turned into a signal by an enzyme label.)
Regarding B1, the binding result was “no binding (tested: 100 ug/ml coating)”.
In the case of B2, the binding result is on record as “no binding (tested: 100 ug/ml coating)”.
As to B3, the binding result is on record as “no binding (tested: 100 ug/ml coating)”.

The target of the next test is T2, bovine thyroglobulin (Sigma) (bovine, UniProt P01267 20-2769).
T2 construct: the same entry is used
T2 sequence (P01267 20-2769 limits assumed): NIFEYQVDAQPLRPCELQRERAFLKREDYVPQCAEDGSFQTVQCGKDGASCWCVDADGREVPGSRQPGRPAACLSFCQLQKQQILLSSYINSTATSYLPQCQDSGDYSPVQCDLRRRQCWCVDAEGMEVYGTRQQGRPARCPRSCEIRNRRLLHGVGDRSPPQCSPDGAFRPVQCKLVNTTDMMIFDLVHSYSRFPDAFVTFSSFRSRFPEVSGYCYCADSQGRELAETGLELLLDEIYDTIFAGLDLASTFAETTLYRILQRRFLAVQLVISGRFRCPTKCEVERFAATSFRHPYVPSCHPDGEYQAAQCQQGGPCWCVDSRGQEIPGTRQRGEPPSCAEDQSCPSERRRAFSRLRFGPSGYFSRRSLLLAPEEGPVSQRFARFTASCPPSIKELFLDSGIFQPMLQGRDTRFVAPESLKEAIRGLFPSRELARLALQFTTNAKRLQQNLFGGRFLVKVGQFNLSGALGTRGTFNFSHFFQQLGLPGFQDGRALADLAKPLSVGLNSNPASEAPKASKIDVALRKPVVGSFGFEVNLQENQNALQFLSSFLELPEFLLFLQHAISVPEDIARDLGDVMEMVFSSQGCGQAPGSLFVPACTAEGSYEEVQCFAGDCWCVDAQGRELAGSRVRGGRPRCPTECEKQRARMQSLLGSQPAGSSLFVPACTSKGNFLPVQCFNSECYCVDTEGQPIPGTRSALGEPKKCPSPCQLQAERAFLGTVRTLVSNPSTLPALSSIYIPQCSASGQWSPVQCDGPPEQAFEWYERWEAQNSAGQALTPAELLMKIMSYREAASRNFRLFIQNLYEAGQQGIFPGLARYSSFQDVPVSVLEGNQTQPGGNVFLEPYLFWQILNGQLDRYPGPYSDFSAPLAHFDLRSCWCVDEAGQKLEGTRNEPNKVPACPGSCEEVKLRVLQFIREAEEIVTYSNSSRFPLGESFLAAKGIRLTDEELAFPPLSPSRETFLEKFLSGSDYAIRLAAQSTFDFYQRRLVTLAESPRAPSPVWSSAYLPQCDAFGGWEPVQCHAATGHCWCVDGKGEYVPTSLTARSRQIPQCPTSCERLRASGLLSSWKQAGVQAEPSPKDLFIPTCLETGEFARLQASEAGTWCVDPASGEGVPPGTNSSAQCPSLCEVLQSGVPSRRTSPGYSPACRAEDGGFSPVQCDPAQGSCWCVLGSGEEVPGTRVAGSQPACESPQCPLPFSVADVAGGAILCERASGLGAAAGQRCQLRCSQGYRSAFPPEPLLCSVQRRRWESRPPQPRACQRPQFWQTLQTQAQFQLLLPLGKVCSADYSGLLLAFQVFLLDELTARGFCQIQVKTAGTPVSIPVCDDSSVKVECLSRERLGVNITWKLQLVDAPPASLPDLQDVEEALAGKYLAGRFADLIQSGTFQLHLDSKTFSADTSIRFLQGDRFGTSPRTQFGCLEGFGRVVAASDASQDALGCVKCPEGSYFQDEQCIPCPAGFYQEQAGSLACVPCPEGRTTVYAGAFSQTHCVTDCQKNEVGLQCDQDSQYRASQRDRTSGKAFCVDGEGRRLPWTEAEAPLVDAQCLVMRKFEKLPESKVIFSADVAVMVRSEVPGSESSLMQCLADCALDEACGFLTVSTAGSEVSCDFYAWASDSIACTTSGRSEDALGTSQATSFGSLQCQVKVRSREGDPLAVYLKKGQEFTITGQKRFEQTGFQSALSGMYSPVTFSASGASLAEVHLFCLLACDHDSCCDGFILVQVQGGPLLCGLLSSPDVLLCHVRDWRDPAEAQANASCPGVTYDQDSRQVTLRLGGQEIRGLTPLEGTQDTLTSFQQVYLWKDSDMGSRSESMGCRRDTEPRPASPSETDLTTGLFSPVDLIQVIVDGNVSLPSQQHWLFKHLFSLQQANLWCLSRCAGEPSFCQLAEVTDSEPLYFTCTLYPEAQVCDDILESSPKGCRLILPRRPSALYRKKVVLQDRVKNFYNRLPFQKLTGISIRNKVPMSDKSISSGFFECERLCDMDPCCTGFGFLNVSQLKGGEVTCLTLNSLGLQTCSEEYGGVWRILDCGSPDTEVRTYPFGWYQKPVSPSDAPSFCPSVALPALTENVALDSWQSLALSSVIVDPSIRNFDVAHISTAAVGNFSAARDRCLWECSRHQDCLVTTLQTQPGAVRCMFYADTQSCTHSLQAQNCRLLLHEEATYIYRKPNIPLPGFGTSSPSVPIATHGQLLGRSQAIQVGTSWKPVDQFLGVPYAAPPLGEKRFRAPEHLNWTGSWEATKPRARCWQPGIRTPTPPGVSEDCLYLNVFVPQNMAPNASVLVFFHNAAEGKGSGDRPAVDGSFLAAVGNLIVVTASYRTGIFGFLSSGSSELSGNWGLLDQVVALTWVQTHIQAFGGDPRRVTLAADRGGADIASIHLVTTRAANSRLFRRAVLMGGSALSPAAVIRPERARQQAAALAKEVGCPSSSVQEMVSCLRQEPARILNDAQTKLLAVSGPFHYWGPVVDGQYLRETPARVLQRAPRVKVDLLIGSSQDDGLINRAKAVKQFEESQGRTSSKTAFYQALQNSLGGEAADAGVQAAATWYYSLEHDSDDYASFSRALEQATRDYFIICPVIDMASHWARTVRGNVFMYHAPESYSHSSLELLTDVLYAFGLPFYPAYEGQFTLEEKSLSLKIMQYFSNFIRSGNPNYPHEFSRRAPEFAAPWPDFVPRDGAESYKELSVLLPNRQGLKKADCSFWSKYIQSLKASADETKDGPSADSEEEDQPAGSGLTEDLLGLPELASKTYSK
The test is described as follows: phage ELISA.
For the molecule B1, the binding result is listed as “no binding (tested: 100 ug/ml coating)”.
For the molecule B2, the binding result is reported as “no binding (tested: 100 ug/ml coating)”.
For B3, the binding result is recorded as “no binding (tested: 100 ug/ml coating)”.
